Test system: MS2 coat protein
Experiment: apparent KD of MS2 coat protein; designed switch direction (-1 OFF switch, 1 ON switch): -1; higher = weaker reporter binding
Method in brief: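 The buffer was Tris-HCl pH 7.5 with KCl, MgCl2, BSA, DTT, tRNA and Tween-20. In it, SNAP-549-labelled MS2 coat protein was titrated in doubling steps from 0.7 or 1.5 nM to 3 µM over chip-bound RNA switches transcribed by stalled E. coli RNA polymerase on Illumina chips. Apparent KD is the per-design median over clusters of curve fits to normalised fluorescence.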

[1] = input ligand: microRNA oligo, concentration not stated
[2] = Eterna round: R95, input ligand: FMN 200 uM
[3] = Eterna round: R95, input ligand: microRNA oligo, concentration not stated
[4] = Eterna round: R95, input ligand: none

| Sequence | apparent KD of MS2 coat protein [1] | apparent KD of MS2 coat protein (input ligand: FMN 200 uM) | apparent KD of MS2 coat protein (input ligand: none) | apparent KD of MS2 coat protein [3] | other results |
| --- | --- | --- | --- | --- | --- |
| UCACGGGACUAAGGAUAUACAUGAUCCAUUUUUGUAGAAGGUAGAAUGUUAGAUCAUAAACUAAACAUGAGGAUCACCCAUGUU [JR_ExcNG1_Sub089] (Eterna round: R96, puzzle: Exclusion NG 1) | 20.2 nM | – | – | – | – |
| UAUUUCAUCUAUGGGAGUAACAUGAGGAUCACCCAUGUAUGUCUUGUUUUUUGUUCGUCUAAGACUUUCUGAUCAGU [JR_SV3TOV1_Sub031] (Eterna round: R96, puzzle: Sensor v3, turn-off variant 1) | 43.1 nM | 39.4 nM | 35.6 nM | – | – |
| CCAAGCUUGUUCAUUAUCCACAUGAGGAUCACCCAUGUCUUGGCAAUUAUGACCUGCCCGUCAGGAGCUCGUCUUAU [Sensor-V1 #37] (Eterna round: R97, puzzle: Sensor, turn-off variant 1) | – | 316 nM | 346 nM | – | – |
| AUAACUCUAGUCAGGAUAUGCGAGCAAGGAUUAGAGCAGAAGGGACAUGAGGAUCACCCAUGUGGUAGCUGGGU [Indiraa] (puzzle: Brourd's mod of Exclusion 4) | – | – | – | 47.3 nM | apparent KD of MS2 coat protein [2]: 33.6 nM; apparent KD of MS2 coat protein [4]: 77.5 nM |
| GUUGCUACUGAGGAUAUUAUACUACCCGACUGAUAAGAAGGCAGUACAUGAGGAUCACCCAUGUGGGUAGCCAC [Polaris13] (Eterna round: R97, puzzle: Exclusion 6) | – | 25.5 nM | 21.7 nM | – | – |
| UAAAGUAUAUAGGAUAUCUAGCUGGAUACAGCUAGAGAAGGAUGUACAUGAGGAUCACCCAUGUAGAUCUCAAA [Ex6/15-A1] (Eterna round: R97, puzzle: Exclusion 6) | – | 17.4 nM | 14.8 nM | – | – |
| AGUAACAGAGGAUAUACUAUUUUAUGUGUUUAUUAUUUUGAACAUGAGGAUCACCCAUGUAGAAGGCUGAAUAA [JMF 91] (puzzle: Exclusion 2) | – | – | – | 27.2 nM | – |
| AAGUAGGAUGUUAGGAUAUCGCCCUCGCAAUAGGGCGAGAAGGGACAUGAGGAUCACCCAUGUAGGCGAUAGAA [Laedesed] (Eterna round: R97, puzzle: Brourd's mod of Exclusion 4) | – | 29.3 nM | 16.9 nM | – | – |
| GUAGAGUCAGGAUAUACAGAAAGUGGCUGGAAAACAGUGGCACAUGAGGAUCACCCAUGUAGAAGGGACUCUAC [ChP 11-04-2015 #1] (puzzle: Exclusion 2) | – | – | – | 84.3 nM | – |
| CUUUUGUGAGGAUAUCAGUAGUAUAAAAAUAAAAUUACUACUGAGAAGGCACAUGAGGAUCACCCAUGUUCCUC [salish99_ex4_r3_017] (puzzle: Exclusion 4) | – | – | – | 37.4 nM | – |
| UAUUCGCAAGCGAGAUCCCACAUGAGGAUCACCCAUGUGCUCGUCUUAUAAGGUACUGUGACGAGAGUCACGGUACC [Mat - Sensor, turn-off var - Eli Mod - D82] (Eterna round: R97, puzzle: Sensor, turn-off variant 1) | – | 16.8 nM | 14.7 nM | – | – |
| AAAAGAACAUGAGGAUCACCCAUGUGAACCUUCGUUCGACCUCAGGAUAUCCGCCACCGUCCGCAGGAGAAGGGAGGUAAAAUA [Quraa] (Eterna round: R96, puzzle: Exclusion NG 3) | 45.6 nM | 169 nM | 58.8 nM | – | – |
| GGAUCGAGUGUGAGGAUAUACCACUGGAUACAGUGGUAGAAGGCACAUGAGGAUCACCCAUGUCUCUACGAUCC [Fiskers BMX 4 - 44] (puzzle: Brourd's mod of Exclusion 4) | – | – | – | 16.3 nM | – |
| UAAGGUCGUCAAUACCUAACCACAUGAGGAUCACCCAUGUCUGAGGAUAUGAAGGCGGCCCGCCAUUAGAAGGCAGCAAGGGAA [Ustiarmadi] (Eterna round: R96, puzzle: Exclusion NG 3) | 7.89 nM | 13.2 nM | 14.4 nM | – | – |
| ACAUGAGGAUCACCCAUGUGAAACCAAUGGCUGACUUUGAGACAGGAUAUUCGUGCAUAUCAUACGAAGAAGGGUCAUUACUGG [Deportation 96 - Jieux - Exclusion NG 3] (Eterna round: R96, puzzle: Exclusion NG 3) | 45.8 nM | 63.5 nM | 55.2 nM | – | – |
| UGUGCUUCAGGAUAUACGUGACGACCGUGAGGUCGAAGGUUACAUGAGGAUCACCCAUGUAGAAGGGAAGUACU [Mat - Exclusion 2 - JL Mod - D29] (Eterna round: R97, puzzle: Exclusion 2) | – | 66.8 nM | 33 nM | – | – |
| GGGAUGUCAGGAUAUCCGAAAGUCUGCCAAUACGGCAGACAGGAGAAGGGACAUGAGGAUCACCCAUGUAAAGA [Aedxear] (puzzle: Exclusion 4) | – | – | – | 59.4 nM | apparent KD of MS2 coat protein [2]: 120 nM; apparent KD of MS2 coat protein [4]: 49.4 nM |
| GAUAGAGAGCAGGAUAUCUUGGAUAAGUAUUGUAGAGAAGGGCUCACAUGAGGAUCACCCAUGUGGUCCUAGAU [JL Dibiri mod 10] (puzzle: Exclusion 6) | – | – | – | 14.8 nM | – |
| GAAAACGUAGGAUAUUAAUACUCAGACAUGAGGAUCACCCAUGUUUGGUGGGUUUAAGAAUGAGAAGGGCGAUGAA [EX5 #6] (Eterna round: R97, puzzle: Exclusion 5) | – | 49 nM | 49 nM | – | – |
| AGAUCACAUGAGGAUCACCCAUGUGAGGAUAUGAUACUAUGUACUUCGGUACAUAGUAUCAGAAGGCAUGUGGA [Ex1-3: 75] (puzzle: Exclusion 1) | – | – | – | 53.7 nM | – |
| AAUUAACAAGCAGGAUCCUACAUGAGGAUCACCCAUGUGCUCGUCUUAUAAAGUACUAUCACGAAAGUGAUAGUACA [Mat - Sensor v3 - turn-off var 1 - Eli Mod - D74] (puzzle: Sensor v3, turn-off variant 1) | – | – | – | 566 nM | apparent KD of MS2 coat protein [2]: 224 nM; apparent KD of MS2 coat protein [4]: 197 nM |
| UCGUUCCGUGUAGGAUAUUGGCCUUCUCUGGGCCGAGAAGGACAUGAGGAUCACCCAUGUAUGUUAUUAUCACGCGUGGCGCAU [Design 84] (Eterna round: R96, puzzle: Exclusion NG 1) | 22.9 nM | 181 nM | 25.1 nM | – | – |
| CCCAGUUAGGAAGGAUAUUGUACAUGAGGAUCACCCAUGUAAUAAAUGAGGAUCACGGAUGUAUACAAGAAGGUCCGGAUAGGC [Ostracism 9 - Jieux - Exclusion NG 2] (Eterna round: R96, puzzle: Exclusion NG 2) | 59.3 nM | – | – | – | – |
| UCUCGCAGGCAAGGAUAUCCUACAUUGUUCUGGCCCGGGCAUGCUACAUGAGGAUCACCCAUGUGGGAGAAGGUGCGCCACGGC [Design 32] (Eterna round: R96, puzzle: Exclusion NG 2) | 36 nM | 47.9 nM | 35.4 nM | – | – |
| UAUAAUACAUAGGAUAUCGAAUAAAUCAUUUAACGAGAAGGAUGAACAUGAGGAUCACCCAUGUGGUAUCAUGG [Mat - Exclusion 6 - JL Mod - D12] (puzzle: Exclusion 6) | – | – | – | 180 nM | – |
| AGAGUACAUGUGAGGAUAUCUGGAGUGUCCCACGAAGAGAAGGCACAUGAGGAUCACCCAUGUCGUCCCGGUUU [Eternabot (L1) Solution 28] (Eterna round: R97, puzzle: Brourd's mod of Exclusion 4) | – | 22.5 nM | 17.1 nM | – | – |

Reference: the supplement of paper PMC9170038
